Residue numbers refer to the chain shown, from its start.
T1: TROP-2 expressed on cells (UniProt P09758 27-323, limits assumed)
T1 sequence (looked up): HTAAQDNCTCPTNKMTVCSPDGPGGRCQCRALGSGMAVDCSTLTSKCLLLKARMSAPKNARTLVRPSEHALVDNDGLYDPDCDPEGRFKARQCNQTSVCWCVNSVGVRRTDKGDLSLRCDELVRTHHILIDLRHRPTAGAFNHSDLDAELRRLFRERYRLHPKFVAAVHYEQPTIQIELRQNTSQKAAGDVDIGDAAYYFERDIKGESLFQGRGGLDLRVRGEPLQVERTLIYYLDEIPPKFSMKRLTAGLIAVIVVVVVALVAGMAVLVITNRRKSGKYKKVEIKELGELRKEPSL

B1: PD3 anti-TROP2 antibody (antibody, human IgG1, kappa, V domains shown)
VH: EVQLVQSGSELKKPGASVKVSCKASGYTFTNYGMNWVKQAPGQGLKWMGWINTYTGEPTYTQDFKGRFAFSLDTSVSTAYLQISSLKAEDTAVYYCARGGFGSSYWYFDVWGQGTLVTVSS
VL: DIQLTQSPSSLSASVGDRVSITCKASQDVSIAVAWYQQKPGKAPKLLIYSASYRYTGVPDRFSGSGSGTDFTLTISSLQPEDFAVYYCQQHYITPLTFGAGTKVEIKR
B2: hRS7 (control anti-TROP-2 antibody, constructed according to WO03074566) (antibody, human IgG1, kappa, V domains shown)
VH: B1 VH with E1Q, V5Q, Q62D, E89D, Y95F, T115S
VL: B1 VL
B3: ADC-4 (TINA-58) (antibody, human IgG1, kappa, V domains shown)
VH: QVQLVQSGAEVKKPGASVKVSCKASGYTFTTAGMQWVRQAPGQGLEWMGWINTHSGVPKYAEDFKGRVTISADTSTSTAYLQLSSLKSEDTAVYYCARSGFGSSYWYFDVWGQGTLVTVSS
VL: B1 VL with L4M, S20T, I31T, D60S, A100Q, V104L
modifications: compound 58 (linker-drug) conjugated after TCEP reduction of the antibody; average n=3.99 per antibody (UV-Vis); sites not stated
B4: ADC-7 (hRS7-9-A) (antibody, human IgG1, kappa, V domains shown)
VH: B1 VH with E1Q, V5Q, Q62D, E89D, Y95F, T115S
VL: B1 VL
modifications: compound 9-A (linker-drug) conjugated after TCEP reduction of the antibody; average n=3.72 per antibody (UV-Vis); sites not stated
B5: TINA antibody (constructed according to WO2015098099A1) (antibody, human IgG1, kappa, V domains shown)
VH: B3 VH
VL: B1 VL with L4M, S20T, I31T, D60S, A100Q, V104L
B6: ADC-5 (PD3-58) (antibody, human IgG1, kappa, V domains shown)
VH: B1 VH
VL: B1 VL
modifications: compound 58 (linker-drug) conjugated after TCEP reduction of the antibody; average n=3.88 per antibody (UV-Vis); sites not stated

Legend:
Experiment in all cases: cell-based or functional assay
[1] = molecular target: T1, TROP-2 expressed on cells
[2] = molecular target: T1, TROP-2 expressed on cells; remark: listed apart in the source
[3] = molecular target: T1, TROP-2 expressed on cells; remark: listed apart in the source

| Binder | EC50, antibody endocytic activity (DT3C cell killing, CTG) [1] [nM] | Emax, antibody endocytic activity (DT3C cell killing, CTG) [1] [%] | EC50, killing activity on Colo205(++) cells [2] [nM] | EC50, killing activity on DMS53(++) cells [2] [nM] | EC50, killing activity on FaDu(+++) cells [2] [nM] | EC50, killing activity on HCC827(+++) cells [2] [nM] | Emax, killing activity on Colo205(++) cells [2] [%] | Emax, killing activity on DMS53(++) cells [2] [%] | Emax, killing activity on FaDu(+++) cells [2] [%] | Emax, killing activity on HCC827(+++) cells [2] [%] | Emax, killing activity on SK-OV-3(+) cells [2] [%] | other results |
| --- | --- | --- | --- | --- | --- | --- | --- | --- | --- | --- | --- | --- |
| B1 | 0.15 | 99.1 |  |  |  |  |  |  |  |  |  |  |
| B2 | 0.18 | 98.5 |  |  |  |  |  |  |  |  |  |  |
| B3 |  |  | 59.8 | 75.6 | 0.53 | 0.27 | 99.7 | 89.8 | 101 | 88.2 | 49.1 |  |
| B4 |  |  | 52.8 | 72.9 | 0.31 | 0.18 | 99.5 | 88.7 | 101 | 89.3 | 66.1 |  |
| B5 | 0.18 | 98.7 |  |  |  |  |  |  |  |  |  |  |
| B6 |  |  |  |  |  |  |  |  |  |  |  | EC50, killing activity on Colo205 cells (second parallel assay) [3]: 25.6 nM; EC50, killing activity on DMS53 cells (second parallel assay) [3]: 25.7 nM; EC50, killing activity on FaDu cells (second parallel assay) [3]: 0.14 nM; EC50, killing activity on HCC827 cells (second parallel assay) [3]: 0.13 nM |
